Values quoted from earlier work as cited in paper PMC6934455, “Molecular Dynamics model of peptide-protein conjugation: case study of covalent complex between Sos1 peptide and N-terminal SH3 domain from Grb2” (Scientific Reports, 2019).
pKd: −log10 of the molar value.

Target: Sos1 peptide (Homo sapiens) (UniProt Q07889)

Chain of Grb2 N-terminal SH3 (P62993 1-58): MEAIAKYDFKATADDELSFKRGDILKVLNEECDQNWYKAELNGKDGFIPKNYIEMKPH

Grb2 N-terminal SH3 (from UniProt P62993)
pKd: 5.46
